Consider 3 molecules from patent US20190270826A1 (Janssen / Centocor, published 2019).

As a reminder, the Kd is the concentration at which binding is half-saturated. In general, koff refers to a measure of how fast the partners let go of each other. Broadly, the kon is the rate constant with which the complex forms.

The target of assay [1] is T1, recombinant human IL1RAP ECD (human, UniProt Q9NPH3 21-367).
T1 construct: His-tagged; also called hIL1RAP-ECD; rhuIL1RAP
T1 sequence: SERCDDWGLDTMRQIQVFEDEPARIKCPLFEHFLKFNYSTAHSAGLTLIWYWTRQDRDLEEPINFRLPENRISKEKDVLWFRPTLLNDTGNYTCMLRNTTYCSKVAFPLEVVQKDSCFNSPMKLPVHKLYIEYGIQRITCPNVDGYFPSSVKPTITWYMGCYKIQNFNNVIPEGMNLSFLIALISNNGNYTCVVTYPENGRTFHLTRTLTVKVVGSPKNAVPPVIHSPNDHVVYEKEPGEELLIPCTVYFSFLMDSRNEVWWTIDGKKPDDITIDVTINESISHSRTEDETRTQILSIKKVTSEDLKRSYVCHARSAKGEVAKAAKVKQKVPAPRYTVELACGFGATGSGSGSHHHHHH
Put plainly: SPR, summary. On the technique in general: SPR reads the build-up and loss of mass on a sensor chip optically.

The target of assay [2] is T1, recombinant human IL1RAP ECD. As to the kind of experiment: SPR (ProteOn).
Assay [3] addresses T2, recombinant cyno IL1RAP ECD (cynomolgus monkey, UniProt P59822 21-367 (rhesus entry)).
T2 construct: also called rcynoIL1RAP
T2 sequence: T1 sequence with L183F, T273P, K326T
Put plainly: recombinant protein.

Assay [4] addresses T3, cyno IL1RAP ECD displayed on HEK-293F cells (pDisplay) (cynomolgus monkey, UniProt P59822 21-367 (rhesus entry)).
T3 sequence: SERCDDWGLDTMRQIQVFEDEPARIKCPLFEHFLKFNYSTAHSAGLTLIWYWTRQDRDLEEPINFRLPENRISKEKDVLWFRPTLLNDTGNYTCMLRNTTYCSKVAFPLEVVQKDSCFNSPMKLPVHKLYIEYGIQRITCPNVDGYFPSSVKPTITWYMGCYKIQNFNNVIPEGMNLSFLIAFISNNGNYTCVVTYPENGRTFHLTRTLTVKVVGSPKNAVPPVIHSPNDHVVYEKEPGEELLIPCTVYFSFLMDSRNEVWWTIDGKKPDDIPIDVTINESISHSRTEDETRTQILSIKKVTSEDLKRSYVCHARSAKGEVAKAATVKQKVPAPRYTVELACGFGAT
As to the kind of experiment: HEK-293F cells (MSD).

Assay [5] has as its target T1, recombinant human IL1RAP ECD. Put plainly: SPR; KD against parent IAPB54.
A further assay deals with T4, human FcRn (human, UniProt P55899 24-297; P61769 21-119, limits assumed).
T4 construct: GST-tagged
As to the kind of experiment: AlphaScreen competition, human FcRn (n=1); displaced: biotinylated control mAb B21M WT IgG1 (m27); pH 6.0. The text has this:
(§1) Measurements were made using an AlphaScreen™ assay (Amplified Luminescent Proximity Homogeneous Assay (ALPHA), PerkinElmer, Wellesley, Mass.), a bead-based luminescent proximity assay. Laser excitation of a donor bead excites oxygen, which if sufficiently close to the acceptor bead generates a cascade of chemiluminescent events, ultimately leading to fluorescence emission at 520-620 nm.
Background: In Alpha technology, singlet oxygen from a donor bead excites a nearby acceptor bead.

A further assay addresses T5, human FcγRIIb (human, UniProt P31994 43-217, limits assumed).
T5 construct: GST-tagged
T5 sequence (looked up): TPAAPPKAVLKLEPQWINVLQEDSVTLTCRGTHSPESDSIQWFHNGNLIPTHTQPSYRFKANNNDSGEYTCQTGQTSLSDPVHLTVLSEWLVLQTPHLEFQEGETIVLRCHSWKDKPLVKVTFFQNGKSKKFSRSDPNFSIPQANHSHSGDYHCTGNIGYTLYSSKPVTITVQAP
As to the kind of experiment: AlphaScreen competition, human FcγRIIb (n=1); displaced: biotinylated control mAb B21M hIgG1 WT; pH 7.2.
Excerpt: as §1

The next assay concerns the target T6, human FcγRI (human, UniProt P12314 16-292, limits assumed).
T6 construct: GST-tagged, on glutathione acceptor beads; also called FcγRT [sic]
As to the kind of experiment: AlphaScreen competition, human FcγRI (n=1); displaced: biotinylated control mAb B21M hIgG1 AlaAla; pH 7.2.
Excerpt: as §1

Where a chain is given by its changes, count along the chain named. Names may count otherwise.

B1: IAPB54 (antibody, human IgG4 S228P, lambda, F234A L235A, V domains shown)
VH: QVQLVQSGSELKKPGASVKVSCKASGYTFNTYAMNWVRQAPGQGLEWMGWINTNTGNPTYAQGFTGRFVFSLDTSVSTAYLQISSLKAEDTAVYYCARRYFDWLLGAFDIWGQGTMVTVSS
VL: QSALTQPRSVSGSPGHSVTISCTGTSSDVGDYNYVSWYQQRPGKVPKLLIYDVSKRPSGVPDRFSGSKSGNTASLTISGLQAEDEAIYFCCSYAGNYNVVFGGGTKLTVLG
notes: IgG4-PAA; also called 17B04 with human IgG4-PAA
Take B1: the Kd in assay [1] amounted to 0.58 nM. Further, in assay [2], the Kd turned out to be 0.0775 nM, the koff was 7.48e-05 s⁻¹ and the kon was 965000 M⁻¹ s⁻¹. Also, in assay [3], the binding result is given as “binds”. The binding result in assay [4] is on record as “binds”. For the same molecule, the “Fold Different from parent” value in assay [5] amounted to 1 fold.

B2: IAPB63 (antibody, human IgG4 S228P, lambda, F234A L235A)
heavy: not shown
light: QSALTQPRSVSGSPGHSVTISCTGTSSDVGDYNYVSWYQQRPGKVPKLLIYDVSKRPSGVPDRFSGSKSGNTASLTISGLQAEDEAIYFCASYAGNYNVVFGGGTKLTVLGQPKAAPSVTLFPPSSEELQANKATLVCLISDFYPGAVTVAWKADSSPVKAGVETTTPSKQSNNKYAASSYLSLTPEQWKSHRSYSCQVTHEGSTVEKTVAPTECS
notes: IgG4-PAA; whole chains; also called IAPB54-LC-C91A
As for B2, the Kd in assay [1] was 0.11 nM. In assay [2], the Kd worked out at 0.108 nM, the koff came out at 9.76e-05 s⁻¹ and the kon stood at 900000 M⁻¹ s⁻¹. Besides, the “Fold Different from parent” value in assay [5] is 1.4 fold. The “IC50 (read off the curve)” value with human FcRn was approximately 200 nM. For the same molecule, the binding result with human FcγRIIb is listed as “binds”. Moreover, the “IC50 (read off the curve)” value with human FcγRI was approximately 90 nM.

B3: IAPB64 (antibody, human IgG4 S228P, lambda, F234A L235A, V domains shown)
VH: B1 VH
VL: B1 VL with C91S
notes: IgG4-PAA; whole chains; also called IAPB54-LC-C91S
With B3, the Kd in assay [1] came out at 0.38 nM. Also, in assay [2], the Kd worked out at 0.367 nM, the koff is 0.000234 s⁻¹ and the kon was 638000 M⁻¹ s⁻¹. In addition, the “Fold Different from parent” value in assay [5] came out at 4.7 fold.
